{
  "source": "paper PMC11703230",
  "about": "(bioRxiv, 2025)",
  "binders": {"B1": {"name": "MBP-Sir4(1150-1358) (domain or fragment, S. cerevisiae, UniProt P11978 1150-1358, looked up)", "chain": "KTLPEKKQFDSIFNSNKAKIIPGNGKHASENISLSFSRPASYGYFSVGKRVPIVEDRRVKQLDDITDSNTTEILTSVDVLGTHSQTGTQQSNMYTSTQKTELEIDNKDSVTECSKDMKEDGLSFVDIVLSKAASALDEKEKQLAVANEIIRSLSDEVMRNEIRITSLQGDLTFTKKCLENARSQISEKDAKINKLMEKDFQVNKEIKPY"}, "B2": {"name": "MBP-Sir4(744-1358) (domain or fragment, S. cerevisiae, UniProt P11978 744-1358, looked up)", "chain": "PGKMELVYVSDSDDSSSDNDSLTDLESLSSGESNEIKVTNDLDTSAEKDQIQAGKWFDPVLDWRKSDRELTKNILWRIADKTTYDKETITDLIEQGIPKHSYLSGNPLTSVTNDICSVENYETSSAFFYQQVHKKDRLQYLPLYAVSTFENTNNTEKNDVTNKNINIGKHSQEQNSSSAKPSQIPTVSSPLGFEETKLSTTPTKSNRRVSHSDTNSSKPKNTKENLSKSSWRQEWLANLKLISVSLVDEFPSELSDSDRQIINEKMQLLKDIFANNLKSAISNNFRESDIIILKGEIEDYPMSSEIKIYYNELQNKPDAKKARFWSFMKTQRFVSNMGFDIQKSCEPVSISTSVKPHVVEPEHMADAKIMPKDILQITKKPLMVKNVKPSSPPDVKSLVQLSTMETKTLPEKKQFDSIFNSNKAKIIPGNGKHASENISLSFSRPASYGYFSVGKRVPIVEDRRVKQLDDITDSNTTEILTSVDVLGTHSQTGTQQSNMYTSTQKTELEIDNKDSVTECSKDMKEDGLSFVDIVLSKAASALDEKEKQLAVANEIIRSLSDEVMRNEIRITSLQGDLTFTKKCLENARSQISEKDAKINKLMEKDFQVNKEIKPY"}},
  "experiment_in_all_cases": "cross-linking",
  "key": {"[1]": {"molecular_target": "Sir2 (untagged final), full-length (S. cerevisiae, UniProt P06700 1-562)", "sequence (P06700 whole entry)": "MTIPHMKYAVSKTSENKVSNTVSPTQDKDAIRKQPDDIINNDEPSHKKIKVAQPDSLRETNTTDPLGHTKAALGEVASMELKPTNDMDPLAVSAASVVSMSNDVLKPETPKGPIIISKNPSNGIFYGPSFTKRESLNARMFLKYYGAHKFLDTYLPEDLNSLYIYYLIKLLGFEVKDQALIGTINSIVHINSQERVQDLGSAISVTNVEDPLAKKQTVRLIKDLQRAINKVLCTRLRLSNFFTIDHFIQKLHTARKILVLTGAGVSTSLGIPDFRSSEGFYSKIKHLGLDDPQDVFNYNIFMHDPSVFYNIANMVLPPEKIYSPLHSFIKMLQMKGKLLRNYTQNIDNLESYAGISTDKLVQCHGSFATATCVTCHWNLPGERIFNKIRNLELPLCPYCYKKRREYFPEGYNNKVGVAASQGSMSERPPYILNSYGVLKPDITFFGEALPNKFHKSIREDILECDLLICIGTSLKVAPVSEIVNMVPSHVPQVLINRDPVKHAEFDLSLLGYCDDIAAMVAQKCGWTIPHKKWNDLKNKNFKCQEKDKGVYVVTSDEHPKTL"}, "cross-linking": {"molecular_target": "the molecule itself"}, "[2]": {"molecular_target": "Sir3 winged helix deletion (Sir3 1-850) (S. cerevisiae, UniProt P06701 1-850)", "sequence (P06701 1-850, stated change not applied)": "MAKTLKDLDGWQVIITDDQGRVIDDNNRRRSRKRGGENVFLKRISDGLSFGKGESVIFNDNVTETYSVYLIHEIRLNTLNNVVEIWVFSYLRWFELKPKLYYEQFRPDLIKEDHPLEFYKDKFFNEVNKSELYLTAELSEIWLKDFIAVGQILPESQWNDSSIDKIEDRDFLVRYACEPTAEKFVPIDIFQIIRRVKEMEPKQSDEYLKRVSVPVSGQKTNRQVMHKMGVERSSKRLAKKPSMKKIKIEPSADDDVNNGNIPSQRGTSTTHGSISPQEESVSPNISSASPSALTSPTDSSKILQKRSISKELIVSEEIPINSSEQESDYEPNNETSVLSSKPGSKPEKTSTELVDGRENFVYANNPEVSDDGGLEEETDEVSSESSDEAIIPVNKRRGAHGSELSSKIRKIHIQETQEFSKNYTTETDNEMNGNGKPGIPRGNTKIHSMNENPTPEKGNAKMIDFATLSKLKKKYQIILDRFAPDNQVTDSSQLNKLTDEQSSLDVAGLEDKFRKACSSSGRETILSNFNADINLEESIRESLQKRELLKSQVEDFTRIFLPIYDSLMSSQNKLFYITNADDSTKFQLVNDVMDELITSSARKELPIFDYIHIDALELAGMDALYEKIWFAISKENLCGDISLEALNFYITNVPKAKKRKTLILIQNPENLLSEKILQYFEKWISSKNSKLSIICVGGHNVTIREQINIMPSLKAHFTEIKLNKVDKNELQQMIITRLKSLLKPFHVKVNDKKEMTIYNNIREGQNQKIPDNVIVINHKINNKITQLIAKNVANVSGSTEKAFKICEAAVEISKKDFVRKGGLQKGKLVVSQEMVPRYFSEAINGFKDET"}},
  "data": [
    {"binder": "B1", "values": [
      {"measurement": "binding result", "setting": "[1]", "result": "binds"}
    ]},
    {"binder": "B2", "values": [
      {"measurement": "binding result", "setting": "cross-linking", "result": "binds"},
      {"measurement": "binding result", "setting": "[2]", "result": "binds"}
    ]}
  ]
}
